The text below walks through data of paper PMC7239026, “PepO is a target of the two-component systems VicRK and CovR required for systemic virulence of Streptococcus mutans” (Virulence, 2020).

Test [1] addresses T1, human complement protein C1q (human, UniProt P02745 23-245; P02746 28-253; P02747 29-245).
T1 construct: Complement C1q subcomponent subunit A, human; Complement C1q subcomponent subunit B, human; Complement C1q subcomponent subunit C, human; Named only as a whole; source: bought: Calbiochem
The experiment in a line: ELISA; human glycoproteins coated on 96-well plates (5 ug/mL in 75 mM sodium carbonate buffer pH 9.6, 18 h at 4°C); blocked with 3% fish gelatin; rPepO (10 to 50 ug/mL) or rCnmA (0.125 to 2 ug/mL) in 50 mM HEPES pH 7.4, 150 mM NaCl, 2 mM CaCl2, 50 ug/mL BSA, 2 h at 37°C; bound protein detected with rabbit antiserum and peroxidase conjugate, A450 nm; wells with 1% BSA as control. The conditions noted are these: both partners purified. On the technique in general: In an ELISA, binding on a coated surface is turned into a signal by an enzyme label.

In test [2] the target is T2, human C4b-binding protein (C4BP) (human, UniProt P04003 49-597; P20851 18-252).
T2 construct: Named only as a whole ('a multimeric glycoprotein'); source: bought: Athens Research & Technology
T2 sequence (looked up) 1: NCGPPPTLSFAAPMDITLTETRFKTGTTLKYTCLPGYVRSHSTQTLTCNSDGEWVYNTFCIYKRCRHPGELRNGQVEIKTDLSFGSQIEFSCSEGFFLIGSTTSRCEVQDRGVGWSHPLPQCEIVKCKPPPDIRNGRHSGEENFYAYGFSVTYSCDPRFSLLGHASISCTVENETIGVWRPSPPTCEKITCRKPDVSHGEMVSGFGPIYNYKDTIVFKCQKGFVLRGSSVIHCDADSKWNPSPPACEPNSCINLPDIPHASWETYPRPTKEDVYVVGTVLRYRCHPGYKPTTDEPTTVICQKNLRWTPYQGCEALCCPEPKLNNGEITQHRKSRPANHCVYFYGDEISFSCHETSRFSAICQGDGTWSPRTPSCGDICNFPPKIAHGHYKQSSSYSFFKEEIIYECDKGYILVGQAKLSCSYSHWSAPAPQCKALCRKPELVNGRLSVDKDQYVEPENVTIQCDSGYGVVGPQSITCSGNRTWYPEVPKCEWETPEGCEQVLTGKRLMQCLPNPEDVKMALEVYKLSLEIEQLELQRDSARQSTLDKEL
T2 sequence (looked up) 2: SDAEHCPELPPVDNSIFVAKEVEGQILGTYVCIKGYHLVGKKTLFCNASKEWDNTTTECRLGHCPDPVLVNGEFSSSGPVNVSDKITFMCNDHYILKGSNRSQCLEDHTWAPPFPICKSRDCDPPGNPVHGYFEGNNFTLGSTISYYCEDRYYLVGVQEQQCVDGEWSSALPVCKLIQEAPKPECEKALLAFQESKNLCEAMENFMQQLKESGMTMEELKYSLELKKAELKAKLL
Described as above. The conditions noted are these: both partners purified.

T1 sequence (P02745 23-245, chain 1 of 3): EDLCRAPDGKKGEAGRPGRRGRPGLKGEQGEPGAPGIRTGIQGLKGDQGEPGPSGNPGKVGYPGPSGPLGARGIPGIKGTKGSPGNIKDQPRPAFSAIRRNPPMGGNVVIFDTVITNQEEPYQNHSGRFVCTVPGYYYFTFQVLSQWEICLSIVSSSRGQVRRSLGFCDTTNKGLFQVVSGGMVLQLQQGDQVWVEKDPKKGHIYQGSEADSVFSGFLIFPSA
T1 sequence (P02746 28-253, chain 2 of 3): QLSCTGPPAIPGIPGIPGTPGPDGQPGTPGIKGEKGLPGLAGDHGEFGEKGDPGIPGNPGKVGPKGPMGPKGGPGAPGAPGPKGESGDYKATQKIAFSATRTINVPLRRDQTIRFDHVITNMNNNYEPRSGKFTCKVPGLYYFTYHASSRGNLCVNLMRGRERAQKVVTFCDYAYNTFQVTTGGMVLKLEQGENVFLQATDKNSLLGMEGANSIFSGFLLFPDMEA
T1 sequence (P02747 29-245, chain 3 of 3): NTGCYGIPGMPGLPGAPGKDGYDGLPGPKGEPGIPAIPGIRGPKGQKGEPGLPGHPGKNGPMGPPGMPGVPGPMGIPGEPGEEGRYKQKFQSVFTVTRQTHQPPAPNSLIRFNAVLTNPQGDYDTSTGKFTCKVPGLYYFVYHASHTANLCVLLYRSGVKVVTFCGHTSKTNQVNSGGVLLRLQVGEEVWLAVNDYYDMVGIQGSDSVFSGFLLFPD

B1: His-tagged PepO recombinant protein (rPepO), endopeptidase O of Streptococcus mutans (natural protein)
chain: MVRLQDDFYNAVNGQWEEAAVIPDDKPRTGGFSDLADDIEDLMLETTDKWLDGKDVPDDSILQNFVKFHRQVADYDAREETGVKPVLPLIEEYKSLTSFADFASNIATYEMAGKPNELPFGVAPDFMNAQMNVLWAEAPNLILPDTTYYAEGNDKGKELLAKWRTMQEELLPKFGFEEAEIKDLLDKVLTLDAKLAQYVLSSEESSEYVKLYHPYDWADFTKLTPELPLDAIFTQILGQKPDKVIVPEERFWTNFAAEFYSEKNWPFLKATLVLAAASSYNSYLTDDIRILSGSYNRALSGTPQAMGKKKAAFYLAQGPYNQALGLWYAGEKFSPEAKKDVEAKVATMIEVYKERLHKTDWLAQETRNKAITKLNVITPHIGYPEQLPKTYAQKIIDDNLSLVENAQNLAKISIAYNWSKWNQPVDRSEWHMPAHMVNAYYDPQQNQIVFPAAILQAPFYSLEQSSSANYGGIGAVIAHEISHAFDTNGASFDENGSLNNWWTDEDYAAFKKRTDRVVEQFEGLDSYGAKVNGQLTVSENVADLGGLACALEAAKREADFSVRDFFINFATIWRMKARDEYMQMLASIDVHAPAKWRTNVTITNFDEFHQEFAVKEGDGMWRDEDKRVIIW
notes: PepO (endopeptidase O) of Streptococcus mutans strain UA159; entire PepO coding region (1896 bp) amplified from UA159 genomic DNA and cloned into pET-16B; Vector pET-16B; also called full-length PepO; source: E. coli BL21, purified under native conditions (Ni-NTA), dialyzed in PBS
Regarding B1, the binding result in test [1] and in test [2] was “binds” throughout.
